# Results from patent US12043671B2, “Antibodies targeting an amphiregulin-derived cell surface neo-epitope” (Gundersen Lutheran Medical Foundation, Inc., priority 2021, dated 2024).
# Key:
# cleaved-AREG peptide = molecular target: T1, cleaved-AREG peptide (Homo sapiens, UniProt P15514); experiment: ELISA binding of 1A3 and 1A3-VC-PAB-MMAE to cleaved-AREG peptide; settings: 0.001-1 μg/mL
# T1 construct: host or cells: synthetic peptide
# Procedure: Maxisorp flat bottom 96-well plates (Thermo Fisher Scientific) were coated with 5 μg/mL cleaved-AREG peptide at 4° C. overnight. After washing thrice with PBST (PBS with 0.05% Tween20) and blocking for 2 h at RT with 5% non-fat dry milk in PBST, various concentrations of 1A3 and 1A3-VC-PAB-MMAE (0.001, 0.01, 0.1, 1 μg/mL) were added to the wells and incubated for 2 h at RT. The wells were washed four times with PBST and were incubated at RT with Goat anti-rabbit IgG (H+L) Cross-adsorbed-HRP conjugate secondary Ab (ThermoFisher G-21234) for 1 h. One-Step™ Turbo™ B-ELISA Substrate Solution (Thermo Fisher Scientific) was added to the wells for color development, incubated for 15 min and the reaction was stopped by adding 2 M H2SO4.
# [1] = molecular target: T2, Trunc AREG (fragment that remains cell-bound after cleavage by ADAM17) (Homo sapiens, UniProt P15514); experiment: Immunoblot of TRF-conjugated AREG peptides, cleaved mimic; type: binding; settings: 1 μg/mL antibody, 200 ng TRF-conjugated peptide
# T2 construct: host or cells: synthetic peptide conjugated to transferrin
# Procedure: (§1) Monomethyl auristatin E (MMAE) conjugated 1A3 antibody (1A3-VC-PAB-MMAE) was prepared using a kit (CM11409) from CellMosaic Inc. (Woburn, MA, USA) following the manufacturer's instructions. Maleimide-activated valine-citrulline p-aminobenzylcarbamate (VCPAB) MMAE was coupled directly to the antibody after reduction through alkylation.^13 The specificity of 1A3 and 1A3-VC-PAB-MMAE to peptides representing human cleaved-AREG was confirmed by immunoblotting. Briefly, transferrin (TRF) conjugated peptides representing cleaved and uncleaved AREG (200 ng) were electrophoresed on SDS-PAGE gels, transferred to PVDF membrane and probed with 1 μg/mL of 1A3 and 1A3-VC-PAB-MMAE. Horseradish peroxidase-conjugated goat anti-rabbit IgG was used. Antibody binding was detected with enhanced chemiluminescence (ECL; Amersham, Arlington Heights, IL, USA). Furthermore, the characterization and purity of 1A3-VC-PAB-MMAE were analyzed using hydrophobic interaction chromatography (HIC) and size-exclusion chromatography (Cell Mosaic).
# [2] = molecular target: T3, FL AREG (peptide representing uncleaved AREG) (Homo sapiens, UniProt P15514); experiment: Immunoblot of TRF-conjugated AREG peptides, intact cleavage site; type: binding; settings: 1 μg/mL antibody, 200 ng TRF-conjugated peptide
# T3 construct: a peptide spanning this region (SMKTHSMIDSSLSKIAC); host or cells: synthetic peptide conjugated to transferrin
# Procedure: as §1
# MCF7 cells = experiment: Clonogenic assay; type: cell-based, human; settings: MCF7, 25 or 50 nM, 72 h then 14 days
# Procedure: (§2) MCF7 breast cancer cells were plated in 48-well plates, allowed to attach overnight and treated with 12.5, 25 or 50 nM of 1A3-VC-PAB-MMAE for 72 h. A vehicle treated well served as control. After removing the ADC-containing medium, cells were washed using PBS, trypsinized and plated at a density of 1000 cells/well in 12-well plates. The cells were cultured for 14 days, with fresh medium addition every 3 days. The colonies were stained with 0.5% crystal violet solution. The number of colonies per well was counted.
# MCF7-F cells = experiment: Clonogenic assay; type: cell-based, human; settings: 25 or 50 nM, 72 h then 14 days
# Procedure: as §2
# MCF-7 cells = experiment: Tubulin staining (microtubule integrity); type: cell-based, human; settings: 48 h treatment
# Procedure: FIGS. 4A-4E. In vitro 1A3-MMAE cytotoxicity in MCF-7 (FIG. 4A) and MCF-7F (FIG. 4B) cells measured by MTT assay after treatment with 1A3-MMAE, 1A3 or MMAE. FIG. 4C: Clonogenic growth of MCF-7 or MCF-7F cells after exposure to 1A3-MMAE and replating. FIG. 4D: The quantification of clonogenic growth assays in FIG. 4C. (FIG. 4E). Tubulin staining of MCF-7 cells after 48 h treatment with MMAE, 1A3, 1A3-MMAE (40× magnification).
# MCF7 xenografts = experiment: Orthotopic MCF7 breast cancer xenograft in NSG mice; type: in vivo, mouse
# Text: (§3) In Vivo Antitumor Activity Studies: The animal experiments were approved by the Institutional Animal Care and Use Committee of University of Wisconsin La Crosse (La Crosse, Wisconsin, USA). Four-week-old female NOD.Cg-Prkdc^scid II2rg^tm1Wjl/SzJ mice (NSG; The Jackson Laboratory) were acclimated for 1 week before the experiments. For MCF7 breast cancer xenograft model, the mice were implanted subcutaneously with 0.72-mg 17β-estradiol 90-day release tablets (Innovative Research of America) 3 days prior to cell injection. […] Firefly luciferase expressing MCF7 and MCF7-F cells (2×10^6 cells in a 1:1 mixture of serum-free DMEM and Matrigel) were injected orthotopically into the fourth inguinal mammary fat pad of each mouse. Once the tumors were well established, each cell line cohort was divided into three groups (n=5). Mean tumor volume at the start of treatment was 111 mm^3 for the MCF7 cohorts and 119 mm^3 for the MCF7-F cohorts. The mice were treated by intraperitoneal injection every 4 days for a total of six doses with unconjugated or MMAE conjugated anti-cleaved-AREG 1A3 antibody (5 mg/kg), or vehicle control (PBS). Tumor volumes were calculated from caliper data by using the formula: Volume (mm^3)=(Length×Width^2)/2. Mice were imaged weekly with the in vivo FX PRO imaging system (Carestream Molecular Imaging, Woodbridge, CA, USA) after injecting luciferin (150 mg/kg body weight). Tumor volume and body weight were monitored once a week. Statistical Analysis:
# (§4) To test in vivo efficacy of 1A3-MMAE, human breast cancer cell lines expressing luciferase were injected orthotopically into NSG mice (one tumor in each inguinal mammary gland). Once the average tumor size reached approximately 100-125 mm^3, mice were randomized to one of three treatment groups: PBS, 1A3 (5 mg/kg) or 1A3-MMAE (5 mg/kg). Mice received intraperitoneal injections every 4 days for six total injections and were monitored for tumor progression or regression. Similar experiments were performed with MCF7 (FIGS. 5A, 5B, and 5C, left panels) and MCF7-F (FIGS. 5A, 5B, and 5C, right panels) xenografts.
# MCF7-F xenografts = experiment: Orthotopic MCF7-F endocrine-resistant xenograft in NSG mice; type: in vivo, mouse
# Text: as §3, §4
# MCF7 breast cancer cells = experiment: MTT cytotoxicity assay; settings: MCF7, 1.56-200 nM, 72 h
# Procedure: (§5) The cells were seeded at a density of 5000 cells/well in 96-well plates. Approximately 24 h after cell seeding, the cells were treated with varying doses (1.56, 3.125, 6.25, 12.5, 25, 50, 100 and 200 nM) of MMAE, 1A3 and 1A3-VC-PAB-MMAE. Untreated cells were used as control. After incubating for 72 h, the medium was aspirated and 50 μL of serum-free media and 50 μL of MTT solution (5 mg/mL solution in PBS) was added into each well; the cells were then incubated for 3 h at 37° C. The formazan crystals formed were dissolved with 4 mM HCl, 0.1% NP40 in isopropanol. The absorbance was measured at 590 nm using VersaMax Microplate Reader (Molecular Devices LLC, San Jose, California, USA). The assays were performed in triplicate.
# [3] = test system: MCF7-F (fulvestrant-resistant MCF7) breast cancer cells; experiment: MTT cytotoxicity assay; settings: 1.56-200 nM, 72 h
# Procedure: as §5
molecule,measurement,setting,value
1A3-MMAE: Monomethyl auristatin E (MMAE) conjugated 1A3 antibody via valine-citrulline p-aminobenzylcarbamate linker (conjugate) VH: QSVKESEGRLVTPGTPLRLTCTVAGYSLSRYHMCWVRQAPGKGLEWIGMIGGSGRTDYASWAKGRFTISKTSTTVDLKITSPTTEDTATYFCSTVYTDSDGDFWGPGTLVTVSS VL: AELDMTQTPSSKSVPVGGTVTINCQASESVYSNDRLAWFQQKPGQPPKLLIYYASTLASGVPSRFKGSGSGTQFTLTISDLECADAATYYCQSCYDMSSYGVAFGGGTELEIL,"binding to cleaved AREG peptide, unconjugated vs MMAE-conjugated",cleaved-AREG peptide,no substantial difference in binding
same,recognition of truncated AREG peptide by immunoblot,[1],specifically recognized
same,reaction with peptide representing uncleaved AREG by immunoblot,[2],did not react
same,clonogenic survival (number of colonies relative to control),MCF7 cells,dose-dependent effect on survival
same,clonogenic survival (number of colonies relative to control),MCF7-F cells,dose-dependent effect on survival
same,tubulin disruption (microtubule integrity),MCF-7 cells,exhibited tubulin disruption
same,longitudinal luciferase imaging of xenografts,"MCF7 xenografts; MCF7, 5 mg/kg",decreased in both volume and signal
same,xenografts in which tumor volume decreased (maximum response),"MCF7 xenografts; MCF7, 5 mg/kg",8/10
same,xenografts in which tumor volume increased (maximum response),"MCF7 xenografts; MCF7, 5 mg/kg",2/10
same,tumor volume response by caliper measurements,"MCF7 xenografts; MCF7, 5 mg/kg i.p. every 4 days, six doses",strong tumor shrinkage
same,longitudinal luciferase imaging of xenografts,MCF7-F xenografts; 5 mg/kg,decreased in both volume and signal
same,tumor volume response by caliper measurements,"MCF7-F xenografts; 5 mg/kg i.p. every 4 days, six doses",strong tumor shrinkage
same,xenografts cleared to sub-detectable levels,"MCF7-F xenografts; 5 mg/kg, 10 xenografts",10
same,tumors recurred after follow-up,"MCF7-F xenografts; 5 mg/kg, 204-day follow-up period",10/10
same,tumors returned to a size seen prior to treatment,MCF7-F xenografts; 204-day follow-up,only one tumor
same,re-appearance of a lesion after the end of dosing (representative animal),MCF7-F xenografts; luciferase imaging,70 days
same,cytotoxicity by MTT assay,MCF7 breast cancer cells,considerable cytotoxicity
same,cytotoxicity by MTT assay,[3],considerable cytotoxicity
